In patent US20150344570A1 (published 2015):

T1: FcγRIIa R (FcγRIIa allotype with Arg at position 131), extracellular domain with C-terminal His tag (human, UniProt P12318 34-217)
T1 construct: extracellular domain; made in FreeStyle293 cells; analyte in the Biacore assay; also called FcγRIIa type R; 2aR
T1 sequence (looked up): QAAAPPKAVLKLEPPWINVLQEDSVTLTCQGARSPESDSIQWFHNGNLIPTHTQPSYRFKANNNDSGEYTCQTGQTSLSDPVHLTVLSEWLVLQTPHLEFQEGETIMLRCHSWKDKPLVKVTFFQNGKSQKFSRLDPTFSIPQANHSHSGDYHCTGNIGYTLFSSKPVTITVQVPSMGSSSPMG

T2: FcγRIIb, extracellular domain with C-terminal His tag (human, UniProt P31994 43-217)
T2 construct: extracellular domain; made in FreeStyle293 cells; analyte in the Biacore assay; also called 2b; FcgRIIb
T2 sequence (looked up): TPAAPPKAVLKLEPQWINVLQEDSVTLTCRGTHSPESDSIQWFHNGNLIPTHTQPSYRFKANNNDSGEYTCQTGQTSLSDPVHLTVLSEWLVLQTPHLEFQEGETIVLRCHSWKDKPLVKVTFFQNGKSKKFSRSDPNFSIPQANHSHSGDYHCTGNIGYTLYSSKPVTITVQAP


How the values were obtained:
[1] = target: T1, FcγRIIa R (FcγRIIa allotype with Arg at …); assay: SPR (Biacore), antibody captured, FcγR analyte; vs GpH7-A5/GpH7-B3/GpL16-k0 = 100
[2] = target: T2, FcγRIIb, extracellular domain with …; assay: as above
[3] = target: T1, FcγRIIa R (FcγRIIa allotype with Arg at …); assay: SPR (Biacore); He/Con_2aR divided by He/Con_2b, binding to FcγRIIa R against binding to FcγRIIb
Description: The heterodimerized antibodies He Abs in which one of the H chains was introduced with an alteration were assayed for their binding activities to each activating FcγR and inhibitory FcγR according to the method described in Example 4. […] The activating FcγRs in FIGS. 26, 27, 28, and 29 are FcγRIa, FcγRIIa (R), FcγRIIa (H), and FcγRIIIa, respectively.
Analysis of interaction between objective antibody and the FcγR was carried out using Biacore T100 (GE Healthcare). HBS-EP+ (GE Healthcare) was used as the running buffer, and the measurement temperature was set to 25° C. Chips produced by immobilizing the antigen peptide by the amine coupling method to a Series S Sencor Chip CM5 (GE Healthcare), or alternatively, chips produced by allowing preliminarily biotinylated antigen peptides to interact with and immobilize onto a Series S Sensor Chip SA (certified) (GE Healthcare) were used. Antibodies of interest were captured onto an antigen peptide-immobilized chip, and allowed to interact to each FcγR diluted with running buffer. To regenerate and repeatedly use the chip, the antibodies captured on the chip were washed off by reacting 10 mM glycine-HCl, pH 1.5.

He/Con_2aR [1] | He/Con_2b [2] | He_2aR/2b (IIaR/IIb) [3] [ratio] | Binder
48.5 relative (HeCon Ab = 100) | 35.4 relative (HeCon Ab = 100) | 1.37 | GpH7-A5/GpH7-B3 variant L235_01G/GpL16-k0 (antibody, human IgG1, kappa, heterodimerized IgG1, mutation in one H chain only; also called He Ab) heavy 1: not shown heavy 2: not shown light: DIVMTQSPLSLPVTPGEPASISCQASESLVHSNRNTYLHWYLQKPGQSPQLLIYKVSNRFSGVPDRFSGSGSGTDFTLKISRVEAEDVGVYYCSQNTHVPPTFGQGTKVEIERTVAAPSVFIFPPSDEQLKSGTASVVCLLNNFYPREAKVQWKVDNALQSGNSQESVTEQDSKDSTYSLSSTLTLSKADYEKHKVYACEVTHQGLSSPVTKSFNRGEC
56.2 relative (HeCon Ab = 100) | 42.6 relative (HeCon Ab = 100) | 1.32 | GpH7-A5/GpH7-B3 variant L235_19Q/GpL16-k0 (antibody, human IgG1, kappa, heterodimerized IgG1, mutation in one H chain only; also called He Ab) heavy 1: not shown heavy 2: not shown light: DIVMTQSPLSLPVTPGEPASISCQASESLVHSNRNTYLHWYLQKPGQSPQLLIYKVSNRFSGVPDRFSGSGSGTDFTLKISRVEAEDVGVYYCSQNTHVPPTFGQGTKVEIERTVAAPSVFIFPPSDEQLKSGTASVVCLLNNFYPREAKVQWKVDNALQSGNSQESVTEQDSKDSTYSLSSTLTLSKADYEKHKVYACEVTHQGLSSPVTKSFNRGEC
79.6 relative (HeCon Ab = 100) | 64.9 relative (HeCon Ab = 100) | 1.23 | GpH7-A5/GpH7-B3 variant L234_02A/GpL16-k0 (antibody, human IgG1, kappa, heterodimerized IgG1, mutation in one H chain only; also called He Ab) heavy 1: not shown heavy 2: not shown light: DIVMTQSPLSLPVTPGEPASISCQASESLVHSNRNTYLHWYLQKPGQSPQLLIYKVSNRFSGVPDRFSGSGSGTDFTLKISRVEAEDVGVYYCSQNTHVPPTFGQGTKVEIERTVAAPSVFIFPPSDEQLKSGTASVVCLLNNFYPREAKVQWKVDNALQSGNSQESVTEQDSKDSTYSLSSTLTLSKADYEKHKVYACEVTHQGLSSPVTKSFNRGEC
77.5 relative (HeCon Ab = 100) | 62.5 relative (HeCon Ab = 100) | 1.24 | GpH7-A5/GpH7-B3 variant L234_14T/GpL16-k0 (antibody, human IgG1, kappa, heterodimerized IgG1, mutation in one H chain only; also called He Ab) heavy 1: not shown heavy 2: not shown light: DIVMTQSPLSLPVTPGEPASISCQASESLVHSNRNTYLHWYLQKPGQSPQLLIYKVSNRFSGVPDRFSGSGSGTDFTLKISRVEAEDVGVYYCSQNTHVPPTFGQGTKVEIERTVAAPSVFIFPPSDEQLKSGTASVVCLLNNFYPREAKVQWKVDNALQSGNSQESVTEQDSKDSTYSLSSTLTLSKADYEKHKVYACEVTHQGLSSPVTKSFNRGEC
60.7 relative (HeCon Ab = 100) | 46.8 relative (HeCon Ab = 100) | 1.3 | GpH7-A5/GpH7-B3 variant L235_14T/GpL16-k0 (antibody, human IgG1, kappa, heterodimerized IgG1, mutation in one H chain only; also called He Ab) heavy 1: not shown heavy 2: not shown light: DIVMTQSPLSLPVTPGEPASISCQASESLVHSNRNTYLHWYLQKPGQSPQLLIYKVSNRFSGVPDRFSGSGSGTDFTLKISRVEAEDVGVYYCSQNTHVPPTFGQGTKVEIERTVAAPSVFIFPPSDEQLKSGTASVVCLLNNFYPREAKVQWKVDNALQSGNSQESVTEQDSKDSTYSLSSTLTLSKADYEKHKVYACEVTHQGLSSPVTKSFNRGEC
71.8 relative (HeCon Ab = 100) | 59.4 relative (HeCon Ab = 100) | 1.21 | GpH7-A5/GpH7-B3 variant L234_16H/GpL16-k0 (antibody, human IgG1, kappa, heterodimerized IgG1, mutation in one H chain only; also called He Ab) heavy 1: not shown heavy 2: not shown light: DIVMTQSPLSLPVTPGEPASISCQASESLVHSNRNTYLHWYLQKPGQSPQLLIYKVSNRFSGVPDRFSGSGSGTDFTLKISRVEAEDVGVYYCSQNTHVPPTFGQGTKVEIERTVAAPSVFIFPPSDEQLKSGTASVVCLLNNFYPREAKVQWKVDNALQSGNSQESVTEQDSKDSTYSLSSTLTLSKADYEKHKVYACEVTHQGLSSPVTKSFNRGEC
29.9 relative (HeCon Ab = 100) | 18.9 relative (HeCon Ab = 100) | 1.58 | GpH7-A5/GpH7-B3 variant L234_12R/GpL16-k0 (antibody, human IgG1, kappa, heterodimerized IgG1, mutation in one H chain only; also called He Ab) heavy 1: not shown heavy 2: not shown light: DIVMTQSPLSLPVTPGEPASISCQASESLVHSNRNTYLHWYLQKPGQSPQLLIYKVSNRFSGVPDRFSGSGSGTDFTLKISRVEAEDVGVYYCSQNTHVPPTFGQGTKVEIERTVAAPSVFIFPPSDEQLKSGTASVVCLLNNFYPREAKVQWKVDNALQSGNSQESVTEQDSKDSTYSLSSTLTLSKADYEKHKVYACEVTHQGLSSPVTKSFNRGEC
26.8 relative (HeCon Ab = 100) | 16.2 relative (HeCon Ab = 100) | 1.66 | GpH7-A5/GpH7-B3 variant L234_11K/GpL16-k0 (antibody, human IgG1, kappa, heterodimerized IgG1, mutation in one H chain only; also called He Ab) heavy 1: not shown heavy 2: not shown light: DIVMTQSPLSLPVTPGEPASISCQASESLVHSNRNTYLHWYLQKPGQSPQLLIYKVSNRFSGVPDRFSGSGSGTDFTLKISRVEAEDVGVYYCSQNTHVPPTFGQGTKVEIERTVAAPSVFIFPPSDEQLKSGTASVVCLLNNFYPREAKVQWKVDNALQSGNSQESVTEQDSKDSTYSLSSTLTLSKADYEKHKVYACEVTHQGLSSPVTKSFNRGEC
